The results in this text go back to patent US20040234519A1.

Experiment [1] deals with T1, recombinant human PTN (R & D Systems, cat# 252-PL) (human) (UniProt P21246).
T1 sequence: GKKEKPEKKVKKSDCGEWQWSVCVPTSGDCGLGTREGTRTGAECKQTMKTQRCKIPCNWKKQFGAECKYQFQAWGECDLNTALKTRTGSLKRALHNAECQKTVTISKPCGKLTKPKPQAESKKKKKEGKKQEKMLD
Nature of the experiment: ELISA, plate coated with rhPTN, hybridoma antibody, read at 450 nm. In general terms: ELISA stands for enzyme-linked immunosorbent assay.

The target of experiment [2] is T2, PTN secreted by SW13/PTN cells (SW13 human adrenal carcinoma cells stably transfected with PTN cDNA) (human) (UniProt P21246).
T2 sequence: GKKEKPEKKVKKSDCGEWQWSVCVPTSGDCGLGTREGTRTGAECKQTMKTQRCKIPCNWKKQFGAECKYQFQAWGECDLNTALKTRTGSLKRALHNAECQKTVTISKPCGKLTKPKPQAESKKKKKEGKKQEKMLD
Nature of the experiment: ELISA, PTN captured from SW13/PTN supernatant by goat anti-human PTN polyclonal, read at 450 nm.

For experiment [3], the target named is T2, PTN secreted by SW13/PTN cells (SW13 human adrenal carcinoma cells stably transfected with PTN cDNA) (human). Nature of the experiment: cell-based or functional assay.

B1: monoclonal antibody produced by the hybridoma cell line 3B10 (antibody, V domains shown)
VH: QVQLQQSGPELVKPGASVKISCQASGYAFSSHWMNWVKQRPGKGLEWIGRIYPGDGDSLYNGKFKGKATLTADKSSTTVYMQLSSLTSEDSAVYFCARTRAYGPAWFAYWGQGTLVTVSA
VL: DIVMTQSPSSLAMSVGQKVTLSCRSSQSLLDSNNQKNYLAWYQQKPGQSPKLLVYFASIRESGVPDRFIGSGSGTDFTLTITSVQAEDLADYFCQQHYSTPLTFGAGTKLELK
modifications: N-terminus of the heavy chain blocked, most likely modified NH2-terminal glutamine
Take B1: in experiment [1], the ELISA OD turned out to be 0.597 OD. Moreover, the ELISA OD in experiment [2] amounted to 0.139 OD. Moreover, in experiment [3], the Proliferation NIH 3T3 (inhibition) is 50 % inhibition, the Proliferation U87 MG (inhibition) was 50 % inhibition, the Proliferation WI38 (inhibition) was determined as 25 % inhibition and the Soft Agar (inhibition) was determined as 100 % inhibition. Also, the inhibition of SW13 colony formation in soft agar, antibody at 10 ug/ml in experiment [3] is under 95%.
